Target: T1, recombinant Tie2 extracellular domain-Fc fusion (UniProt Q02763 23-748, limits assumed)
T1 construct: extracellular domain; also called Tie2-Fc; Tie2 receptor-Fc fusion; not shown: Fc part
Experiment: BIAcore SPR, purified mAb captured on rabbit anti-mouse IgG Fc, Tie2-Fc injected
Experimental: The affinity of the purified mAbs was measured in the BIAcore. Using a flow rate of 10 μl/min, the mAb (diluted in HBS buffer) was injected over a rabbit anti-mouse IgG Fc surface, followed by buffer flow and the RU recorded. Tie2-Fc diluted in HBS buffer was then injected for 120 s followed by buffer flow for 240 s and regeneration of the sensor chip surface with an injection of 15 μl 0.1 M phosphoric acid. BIAcore software was used for association and dissociation-phase analysis. The murine monoclonal antibodies bound to soluble monomeric Tie2 receptor. The on-rates ($kass$) and off-rates ($kdiss$) were calculated.

T1 sequence (Q02763 23-748 limits assumed): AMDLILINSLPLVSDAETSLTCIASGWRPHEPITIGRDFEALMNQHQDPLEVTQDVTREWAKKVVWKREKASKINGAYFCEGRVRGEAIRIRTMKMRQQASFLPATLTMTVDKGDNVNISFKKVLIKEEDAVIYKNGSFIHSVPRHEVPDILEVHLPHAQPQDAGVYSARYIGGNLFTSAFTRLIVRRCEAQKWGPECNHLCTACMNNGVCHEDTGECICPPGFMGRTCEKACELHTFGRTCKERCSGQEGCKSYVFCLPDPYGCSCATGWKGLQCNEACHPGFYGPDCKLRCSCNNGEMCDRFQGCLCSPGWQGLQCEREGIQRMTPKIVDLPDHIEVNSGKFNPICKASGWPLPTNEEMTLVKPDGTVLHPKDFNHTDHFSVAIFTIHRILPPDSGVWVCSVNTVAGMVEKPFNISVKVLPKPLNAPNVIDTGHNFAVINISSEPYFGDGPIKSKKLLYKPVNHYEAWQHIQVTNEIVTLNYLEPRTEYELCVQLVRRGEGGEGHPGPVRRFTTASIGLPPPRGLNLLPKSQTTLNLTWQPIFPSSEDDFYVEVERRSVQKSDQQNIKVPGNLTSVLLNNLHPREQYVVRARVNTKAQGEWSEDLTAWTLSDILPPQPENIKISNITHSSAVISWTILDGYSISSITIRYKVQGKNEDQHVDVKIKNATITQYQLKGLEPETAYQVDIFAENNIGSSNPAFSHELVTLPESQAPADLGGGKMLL

- Kd: < 0.1 nM
B1: monoclonal antibody 12H8 (antibody, V domains shown)
VH: EVQLVESGGGLVKPGGSLKLSCAASGFTFSDYGMHWVRQAPEKGLEWVAYINSGSSTITYADTVKGRFTISRDNAKNTLFLQMTSLRSEDTAIYYCARGYYGPYYFDYWGQGTALTVSS
VL: DIVMTQSHKFMSTSVGDRVSFTCKASQNVGTAVAWYQQKPGQSPKLLIYWASSRHTGVPDRFTGSGSGTDFTLTITNVQSEDLADYFCQEYSSYPLTFGVGTKLELK
notes: also called mAb 12H8

Reference: patent US6376653 (GlaxoSmithKline, dated 2002)
